Assay results: patent US20250313602A1 (NANJING JSIAMA BIOPHARMACEUTICALS, published 2025)

How the values were obtained:
[1] = molecular target: T1, human IL-2Rα protein (10165-H08H, Sino Biological) (human, UniProt P01589 22-213); test: ELISA, IL-2Rα coated at 2 µg/ml
T1 construct: Both are treated as the same protein; also called receptor IL-2Rα protein; CD25
T1 sequence (looked up): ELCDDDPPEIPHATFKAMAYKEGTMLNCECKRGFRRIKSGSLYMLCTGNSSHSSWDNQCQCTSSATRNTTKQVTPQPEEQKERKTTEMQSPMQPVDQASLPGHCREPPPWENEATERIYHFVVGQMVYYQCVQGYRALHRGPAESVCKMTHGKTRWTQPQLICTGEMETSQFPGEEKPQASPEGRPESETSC

[2] = molecular target: T2, human IL-2Rβ protein (10696-H05H, Sino Biological) (human, UniProt P14784 27-239); test: ELISA, IL-2Rβ coated at 2 µg/ml; reference wild-type IL-2
T2 construct: Both are treated as the same protein; also called receptor IL-2Rβ protein; CD122
T2 sequence (looked up): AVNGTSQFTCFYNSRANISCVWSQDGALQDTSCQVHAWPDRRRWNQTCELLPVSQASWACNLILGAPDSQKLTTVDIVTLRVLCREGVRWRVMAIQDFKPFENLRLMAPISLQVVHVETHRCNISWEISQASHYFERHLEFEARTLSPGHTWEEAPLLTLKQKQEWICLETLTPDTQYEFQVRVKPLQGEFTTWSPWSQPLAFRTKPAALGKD

binding result [1]: binds | fold improvement of binding capacity compared with wild-type IL-2 [2]: 24 times
B1: IL-2-Fc fusion protein (Fc fusion)
chain: APTSSSTKKTQLQLEHLLLDLQMILNGINNYKNPKLTAMLTFKFYMPKKATELKHLQCLEEELKPLEEVLNLAQSKNFHFDPRDVVSNINVFVLELKGSETTFMCEYADETATIVEFLNRWITFCQSIISTLTGGGGSGGGGSGGGGSEPKSCDKTHTCPPCPAPEAAGGPSVFLFPPKPKDTLYITREPEVTCVVVDVSHEDPEVKFNWYVDGVEVHNAKTKPREEQYNSTYRVVSVLTVLHQDWLNGKEYKCKVSNKALPAPIEKTISKAKGQPREPQVYTLPPSREEMTKNQVSLTCLVKGFYPSDIAVEWESNGQPENNYKTTPPVLDSDGSFFLYSKLTVDKSRWQQGNVFSCSVMHEALHNHYTQKSLSLSPK
